Each block holds one substance with its values, some of them ahead of it.
Legend:
Assay in all cases: cell-based or functional assay
[1] = target: GFP11-AID*C (AID*-SPL2C) (human) (UniProt Q9GZX7)
[2] = target: evoA1-seBE4max fragment containing FKBP12, the DNA deaminase C-terminus, nCas9, and two UGIs in series (rat) (UniProt P62942)
[3] = target: AID′-seBE4max fragment containing FKBP12, the DNA deaminase C-terminus, nCas9, and two UGIs in series (human) (UniProt P62942)

in vitro deaminase activity on a labeled oligonucleotide substrate (EC50 of enzyme) (fold reduced from intact AID*) [1]: 4
Substance: AID*N-optGFP1-10 (AID*-SPL2N) (from UniProt Q9GZX7 1-72)

Substance: evoA1-seBE4max fragment containing the DNA deaminase N-terminus and FRB (from UniProt P38483 2-78; P42345 2021-2113)
fold induction of base editing by rapamycin across seven genomic loci [2]: 8.2 fold
on-target base editing across seven genomic loci (deep sequencing), no rapamycin [2]: 3%
on-target base editing across seven genomic loci (deep sequencing), with rapamycin [2]: 28%

Substance: AID′-seBE4max fragment containing the DNA deaminase N-terminus and FRB (from UniProt Q9GZX7 1-72; P42345 2021-2113)
GFP^off cells by flow cytometry, targeting sgRNA, no rapamycin [3]: 7%
GFP^off cells by flow cytometry, targeting sgRNA, with rapamycin (200 nM) [3]: 35%

Source: patent publication US20230070731A1, “COMPOSITIONS FOR SMALL MOLECULE CONTROL OF PRECISE BASE EDITING OF TARGET NUCLEIC ACIDS AND METHODS OF USE THEREOF” (THE TRUSTEES OF THE UNIVERSITY OF PENNSYLVANIA, priority 2020, published 2023)
